Test results: patent publication US20250188189A1 (published 2025)

T1: plasma-derived human activated protein C (APC) (UniProt P04070 43-461)
T1 chain: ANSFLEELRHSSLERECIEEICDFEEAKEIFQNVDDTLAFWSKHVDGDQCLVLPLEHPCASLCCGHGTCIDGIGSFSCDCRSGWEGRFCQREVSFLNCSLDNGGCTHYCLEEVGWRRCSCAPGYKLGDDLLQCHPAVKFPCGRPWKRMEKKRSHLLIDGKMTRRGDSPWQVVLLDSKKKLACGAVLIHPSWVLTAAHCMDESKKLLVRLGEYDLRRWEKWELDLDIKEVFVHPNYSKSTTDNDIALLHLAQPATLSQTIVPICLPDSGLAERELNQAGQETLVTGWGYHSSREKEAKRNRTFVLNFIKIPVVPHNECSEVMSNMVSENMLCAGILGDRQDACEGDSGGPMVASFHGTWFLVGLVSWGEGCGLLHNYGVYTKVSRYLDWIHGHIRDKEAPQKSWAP

B1: TPP-29845 (antibody, V domains shown)
VH: EVQLVESGGGLVQPGGSLRLSCAASGFTFSNFYMNWVRQAPGKGLEWVSYISSSSSTIYYADSVKGRFTISRDDSKNSLYLQMNSLKTEDTAVYYCAREGDYFDYWGQGTLVTVSS
VL: EIVLTQSPGTLSLSPGERATLSCRASQSVSSFGATFMHWYQQKPGQPPKLLIYLASNRASGVPDRFSGSGSGTDFTLKISRVEAEDVGVYYCQQNNEDPYTFGQGTKLEIKR
B2: TPP-29853 (antibody, V domains shown)
VH: EVQLVESGGGLVQPGGSLRLSCAASGFTFSNYYMNWVRQAPGKGLEWVSYISSSSSTIYYADSVKGRFTISRDDSKNSLYLQMNSLKTEDTAVYYCAREGDYMDYWGQGTLVTVSS
VL: EIVLTQSPGTLSLSPGERATLSCRASQSVSSFGATFMHWYQQKPGQPPKLLIYLASNRASGVPDRFSGSGSGTDFTLKISRVEAEDVGVYYCQQNNEDPYTFGQGTKLEIKR
B3: TPP-26939 (antibody, V domains shown)
VH: EVQLVESGGGLVQPGGSLRLSCAASGFTFSNYYINWVRQAPGKGLEWVGDIRLKSNNYEKHYAESVKGRFTISRDDSKNSLYLQMNSLKTEDTAVYYCAREGDYFDYWGQGTLVTVSS
VL: DIVLTQSPASLAVSPGQRATITCKASQSVSSFGATFMHWYQQKPGQPPKLLIYLASNRASGVPDRFSGSGSGTDFTLKISRVEAEDVGVYYCQQNNEDPYTFGQGTKLEIKR
B4: TPP-29854 (antibody, V domains shown)
VH: EVQLVESGGGLVQPGGSLRLSCAASGFTFSNYYMNWVRQAPGKGLEWVSYISSSSSTIYYADSVKGRFTISRDDSKNSLYLQMNSLKTEDTAVYYCAREGDYFDYWGQGTLVTVSS
VL: EIVLTQSPGTLSLSPGERATLSCRASQSVSSFGATFMHWYQQKPGQPPKLLIYLKSNRASGVPDRFSGSGSGTDFTLKISRVEAEDVGVYYCQQNNEDPYTFGQGTKLEIKR
B5: TPP-29860 (antibody, V domains shown)
VH: EVQLVESGGGLVQPGGSLRLSCAASGFTFSNYYMNWVRQAPGKGLEWVSYISSSSSTIYYADSVKGRFTISRDDSKNSLYLQMNSLKTEDTAVYYCAREGDYFDYWGQGTLVTVSS
VL: EIVLTQSPGTLSLSPGERATLSCRASQSVSSFGATFMHWYQQKPGQPPKLLIYLASNRASGVPDRFSGSGSGTDFTLKISRVEAEDVGVYYCTQNNEDPYTFGQGTKLEIKR
B6: TPP-29861 (antibody, V domains shown)
VH: EVQLVESGGGLVQPGGSLRLSCAASGFTFSNYYMNWVRQAPGKGLEWVSYISSSSRTIYYADSVKGRFTISRDDSKNSLYLQMNSLKTEDTAVYYCAREGDYFDYWGQGTLVTVSS
VL: EIVLTQSPGTLSLSPGERATLSCRASQSVSSFGATFMHWYQQKPGQPPKLLIYLASNRASGVPDRFSGSGSGTDFTLKISRVEAEDVGVYYCQQNNEDPYTFGQGTKLEIKR
B7: TPP-29849 (antibody, V domains shown)
VH: EVQLVESGGGLVQPGGSLRLSCAASGFTFSNYYMNWVRQAPGKGLEWVSYISSSSSTIYYADSVKGRFTISRDDSKNSLYLQMNSLKTEDTAVYYCAREGDYFDYWGQGTLVTVSS
VL: EIVLTQSPGTLSLSPGERATLSCRASQSVSSFGATFMHWYQQKPGQPPKLLIYLAWNRASGVPDRFSGSGSGTDFTLKISRVEAEDVGVYYCQQNNEDPYTFGQGTKLEIKR
B8: TPP-29864 (antibody, V domains shown)
VH: EVQLVESGGGLVQPGGSLRLSCAASGFTFSNYYMNWVRQAPGKGLEWVSYISSSSSTIYYADSVKGRFTISRDDSKNSLYLQMNSLKTEDTAVYYCAREGDYFDYWGQGTLVTVSS
VL: EIVLTQSPGTLSLSPGERATLSCRASQSVSSFGATFMHWYQQKPGQPPKLLIYLASRRASGVPDRFSGSGSGTDFTLKISRVEAEDVGVYYCQQNNEDPYTFGQGTKLEIKR
B9: TPP-29846 (antibody, V domains shown)
VH: EVQLVESGGGLVQPGGSLRLSCAASGFTFSPYYMNWVRQAPGKGLEWVSYISSSSSTIYYADSVKGRFTISRDDSKNSLYLQMNSLKTEDTAVYYCAREGDYFDYWGQGTLVTVSS
VL: EIVLTQSPGTLSLSPGERATLSCRASQSVSSFGATFMHWYQQKPGQPPKLLIYLASNRASGVPDRFSGSGSGTDFTLKISRVEAEDVGVYYCQQNNEDPYTFGQGTKLEIKR
B10: TPP-29856 (antibody, V domains shown)
VH: EVQLVESGGGLVQPGGSLRLSCAASGFTFSNYYMNWVRQAPGKGLEWVSYISSSSSTIYYADSVKGRFTISRDDSKNSLYLQMNSLKTEDTAVYYCAREGDYFDYWGQGTLVTVSS
VL: EIVLTQSPGTLSLSPGERATLSCRASQSVSSFGATFMHWYQQKPGQPPKLLIYLASHRASGVPDRFSGSGSGTDFTLKISRVEAEDVGVYYCQQNNEDPYTFGQGTKLEIKR
B11: TPP-29863 (antibody, V domains shown)
VH: EVQLVESGGGLVQPGGSLRLSCAASGFTFSNYYMNWVRQAPGKGLEWVSYISSSSSTIYYADSVKGRFTISRDDSKNSLYLQMNSLKTEDTAVYYCAREGDYFDYWGQGTLVTVSS
VL: EIVLTQSPGTLSLSPGERATLSCRASQRVSSFGATFMHWYQQKPGQPPKLLIYLASNRASGVPDRFSGSGSGTDFTLKISRVEAEDVGVYYCQQNNEDPYTFGQGTKLEIKR
B12: TPP-29857 (antibody, V domains shown)
VH: EVQLVESGGGLVQPGGSLRLSCAASGFTFSNYYMNWVRQAPGKGLEWVSYISSSSSTIYYADSVKGRFTISRDDSKNSLYLQMNSLKTEDTAVYYCAREGDYFDYWGQGTLVTVSS
VL: EIVLTQSPGTLSLSPGERATLSCRASQSVSSFGATFMHWYQQKPGQPPKLLIYLASNRASGVPDRFSGSGSGTDFTLKISRVEAEDVGVYYCQQNNEDPWTFGQGTKLEIKR
B13: TPP-29850 (antibody, V domains shown)
VH: EVQLVESGGGLVQPGGSLRLSCAASGFTFSNYYMNWVRQAPGKGLEWVSYISSSSSTIYYADSVKGRFTISRDDSKNSLYLQMNSLKTEDTAVYYCAREGDYFDYWGQGTLVTVSS
VL: EIVLTQSPGTLSLSPGERATLSCRASQSVSSFGATFMHWYQQKPGQPPKLLIYLASWRASGVPDRFSGSGSGTDFTLKISRVEAEDVGVYYCQQNNEDPYTFGQGTKLEIKR
B14: TPP-29855 (antibody, V domains shown)
VH: EVQLVESGGGLVQPGGSLRLSCAASGFTFSNYYMNWVRQAPGKGLEWVSYISSRSSTIYYADSVKGRFTISRDDSKNSLYLQMNSLKTEDTAVYYCAREGDYFDYWGQGTLVTVSS
VL: EIVLTQSPGTLSLSPGERATLSCRASQSVSSFGATFMHWYQQKPGQPPKLLIYLASNRASGVPDRFSGSGSGTDFTLKISRVEAEDVGVYYCQQNNEDPYTFGQGTKLEIKR
B15: TPP-29847 (antibody, V domains shown)
VH: EVQLVESGGGLVQPGGSLRLSCAASGFTFSNYYMNWVRQAPGKGLEWVSYISSSSSTIYYADSVKGRFTISRDDSKNSLYLQMNSLKTEDTAVYYCAREGDYFDYWGQGTLVTVSS
VL: EIVLTQSPGTLSLSPGERATLSCRASQSVSSFGATFMHWYQQKPGQPPKLLIYLASNRASGVPDRFSGSGSGTDFTLKISRVEAEDVGVYYCQQNNEDPFTFGQGTKLEIKR
B16: TPP-29866 (antibody, V domains shown)
VH: EVQLVESGGGLVQPGGSLRLSCAASGFTFSNYYMNWVRQAPGKGLEWVSYISSSSSPIYYADSVKGRFTISRDDSKNSLYLQMNSLKTEDTAVYYCAREGDYFDYWGQGTLVTVSS
VL: EIVLTQSPGTLSLSPGERATLSCRASQSVSSFGATFMHWYQQKPGQPPKLLIYLASNRASGVPDRFSGSGSGTDFTLKISRVEAEDVGVYYCQQNNEDPYTFGQGTKLEIKR
B17: TPP-29844 (antibody, V domains shown)
VH: EVQLVESGGGLVQPGGSLRLSCAASGFTFSIYYMNWVRQAPGKGLEWVSYISSSSSTIYYADSVKGRFTISRDDSKNSLYLQMNSLKTEDTAVYYCAREGDYFDYWGQGTLVTVSS
VL: EIVLTQSPGTLSLSPGERATLSCRASQSVSSFGATFMHWYQQKPGQPPKLLIYLASNRASGVPDRFSGSGSGTDFTLKISRVEAEDVGVYYCQQNNEDPYTFGQGTKLEIKR
B18: TPP-29852 (antibody, V domains shown)
VH: EVQLVESGGGLVQPGGSLRLSCAASGFTFSFYYMNWVRQAPGKGLEWVSYISSSSSTIYYADSVKGRFTISRDDSKNSLYLQMNSLKTEDTAVYYCAREGDYFDYWGQGTLVTVSS
VL: EIVLTQSPGTLSLSPGERATLSCRASQSVSSFGATFMHWYQQKPGQPPKLLIYLASNRASGVPDRFSGSGSGTDFTLKISRVEAEDVGVYYCQQNNEDPYTFGQGTKLEIKR
B19: TPP-29848 (antibody, V domains shown)
VH: EVQLVESGGGLVQPGGSLRLSCAASGFTFSNYYMNWVRQAPGKGLEWVSYISSSSSTIYYADSVKGRFTISRDDSKNSLYLQMNSLKTEDTAVYYCAREGDYFDYWGQGTLVTVSS
VL: EIVLTQSPGTLSLSPGERATLSCRASESVSSFGATFMHWYQQKPGQPPKLLIYLASNRASGVPDRFSGSGSGTDFTLKISRVEAEDVGVYYCQQNNEDPYTFGQGTKLEIKR
B20: TPP-26922 (antibody, V domains shown)
VH: EVQLVESGGGLVQPGGSLRLSCAASGFTFSNYYMSWVRQAPGKGLEWVGDIRLKSNNYEKHYAESVKGRFTISRDDSKNSLYLQMNSLKTEDTAVYYCAREGDYFDYWGQGTLVTVSS
VL: EIVLTQSPGTLSLSPGERATLSCRASQSVSSFGATFMHWYQQKPGQPPKLLIYLASNRASGVPDRFSGSGSGTDFTLKISRVEAEDVGVYYCQQNNEDPYTFGQGTKLEIKR
B21: TPP-29843 (antibody, V domains shown)
VH: EVQLVESGGGLVQPGGSLRLSCAASGFTFSNYYMNWVRQAPGKGLEWVSYISTSSSTIYYADSVKGRFTISRDDSKNSLYLQMNSLKTEDTAVYYCAREGDYFDYWGQGTLVTVSS
VL: EIVLTQSPGTLSLSPGERATLSCRASQSVSSFGATFMHWYQQKPGQPPKLLIYLASNRASGVPDRFSGSGSGTDFTLKISRVEAEDVGVYYCQQNNEDPYTFGQGTKLEIKR

Molecular target: T1, plasma-derived human activated protein …
Assay: SPR; head prints nM; kd/ka gives M

Row | Binder | Kd [nM]
1 | B1 | 10.7
2 | B2 | 23.3
3 | B3 | 52.1
4 | B4 | 25.2
5 | B5 | 23.9
6 | B6 | 11.3
7 | B7 | 10.2
8 | B8 | 10.4
9 | B9 | 6.37
10 | B10 | 21.3
11 | B11 | 23.8
12 | B12 | 13.3
13 | B13 | 3.13
14 | B14 | 26.1
15 | B15 | 8.33
16 | B16 | 22.2
17 | B17 | 10.1
18 | B18 | 1.18
19 | B19 | 16.2
20 | B20 | 91.7
21 | B21 | 22.3
